The values that follow come from US20230167188A1 (BIOLOJIC DESIGN, published 2023).

The target of assay [1] is T1, human TNFR2 (residues 1-461) expressed on HEK-TNFR2 reporter cells (human, UniProt P20333 23-461).
T1 sequence (looked up): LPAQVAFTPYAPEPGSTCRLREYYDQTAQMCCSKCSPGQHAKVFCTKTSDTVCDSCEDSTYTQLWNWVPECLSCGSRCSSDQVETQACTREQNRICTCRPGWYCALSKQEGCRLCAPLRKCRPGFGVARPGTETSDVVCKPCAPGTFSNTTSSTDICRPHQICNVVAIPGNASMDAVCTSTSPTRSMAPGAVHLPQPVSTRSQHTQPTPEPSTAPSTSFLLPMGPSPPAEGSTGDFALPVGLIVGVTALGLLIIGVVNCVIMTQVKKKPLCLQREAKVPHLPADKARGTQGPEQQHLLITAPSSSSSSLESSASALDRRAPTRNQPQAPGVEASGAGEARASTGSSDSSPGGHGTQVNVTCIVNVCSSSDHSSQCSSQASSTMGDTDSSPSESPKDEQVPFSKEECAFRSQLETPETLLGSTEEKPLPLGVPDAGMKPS
Nature of the assay: cell-based or functional assay.

In assay [2] the target is T2, recombinant human TNFR2 with 6×his tag (human, UniProt P20333 23-257, limits assumed).
T2 construct: Bought (Reprokine, Israel); also called TNFR2-His; hTNFR2-His; not shown: 6xHis tag
T2 sequence (looked up): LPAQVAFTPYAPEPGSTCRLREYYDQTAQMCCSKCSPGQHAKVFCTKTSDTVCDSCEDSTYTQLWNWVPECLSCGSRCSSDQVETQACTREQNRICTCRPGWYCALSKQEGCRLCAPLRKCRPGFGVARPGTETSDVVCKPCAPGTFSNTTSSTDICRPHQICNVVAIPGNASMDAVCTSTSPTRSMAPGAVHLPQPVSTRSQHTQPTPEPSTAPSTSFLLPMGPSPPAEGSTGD
As to the kind of experiment: ELISA, IgG coated, hTNFR2-His titrated, anti-His-HRP. The procedure:
IgG binding affinity to TNFR2 was examined by ELISA. 96 well plates (Greiner Bio-One high binding) were coated with (50 ng/well) of the analyzed antibody and incubated overnight at 4° C. The plates were then washed three times with 300 μl PBS buffer containing 0.05% Tween 20 (PBS-T), blocked with 300μ PBS-T supplemented with 1% to 2% BSA, and incubated for 1 hour at room temperature. Antibodies-coated plates were washed three times with 300 μl PBS-T and incubated with serial dilutions of test ligand hTNFR2-His (Reprokine, Israel) in a final volume of […] for 1-2 hours. Plates were then washed three times with 300 μl PBS-T and incubated with 50 μl anti-HIS-HRP (Santa Cruz Biotechnology, USA, SC-8036HRP) conjugate that was diluted 1:250 in PBS. After an additional wash step of six washes, the reaction was developed with […] tetramethylbenzidine (TMB) reagent (Southern biotech, USA), and stopped with […] 0.5N H₂SO₄. Detection was done on a Synergy LX BioTek (BioTek, USA) plate reader with an absorbance filter set to […]. The binding affinity was determined by fitting the data to a specific binding non-linear regression model on Prisma 8 GraphPad software.
To test binding affinity of clones reformatted as IgG1 and IgG1LALA to TNFR2, an ELISA EC₅₀ binding experiment was conducted for each antibody.
A general note: In an ELISA, binding on a coated surface is turned into a signal by an enzyme label.

B1: BDG30.086 (antibody, human IgG1, kappa)
heavy: not shown
light: DIQMTQSPSSLSASVGDRVTITCRASQDISTAVAWSQQKPGKAPKLLIYPASSLYSGVPSRFSGSRSGTDFTLTISSLQPEDFATYYCQQHPYTPPTFGQGTKVEIKRTVAAPSVFIFPPSDEQLKSGTASVVCLLNNFYPREAKVQWKVDNALQSGNSQESVTEQDSKDSTYSLSSTLTLSKADYEKHKVYACEVTHQGLSSPVTKSFNRGEC
notes: Human IgG1; also called IgG of CID_262
Broadly, the EC50 is the concentration giving half of the maximal effect. Regarding B1, the “Functional Agonism EC50 (nM), NFkB-SEAP reporter” value (from here on “Functional Agonism EC50 (nM)”) in assay [1] amounted to 1.4 nM. For the same molecule, the EC50 in assay [2] is 8.1 nM.

B2: BDG30.202 (antibody, human IgG1, kappa, L234A L235A)
heavy: not shown
light: DIQMTQSPSSLSASVGDRVTITCRASQDISTAVAWSQQKPGKAPKLLIYSASSLYSGVPSRFSGSRSGTDFTLTISSLQPEDFATYYCQQPSLTPPTFGQGTKVEIKRTVAAPSVFIFPPSDEQLKSGTASVVCLLNNFYPREAKVQWKVDNALQSGNSQESVTEQDSKDSTYSLSSTLTLSKADYEKHKVYACEVTHQGLSSPVTKSFNRGEC
Take B2: in assay [1], the “Functional Agonism EC50 (nM)” value is 2.9 nM.

B3: BDG30.204 (antibody, human IgG1, kappa, L234A L235A)
heavy: not shown
light: DIQMTQSPSSLSASVGDRVTITCRASQDVSTAVAWYQQKPGKAPKLLIYPASSLYSGVPSRFSGSRSGTDFTLTISSLQPEDFATYYCQQPGYTPPTFGQGTKVEIKRTVAAPSVFIFPPSDEQLKSGTASVVCLLNNFYPREAKVQWKVDNALQSGNSQESVTEQDSKDSTYSLSSTLTLSKADYEKHKVYACEVTHQGLSSPVTKSFNRGEC
With B3, in assay [1], the “Functional Agonism EC50 (nM)” value came to 3.1 nM.

B4: BDG30.203 (antibody, human IgG1, kappa, L234A L235A)
heavy: not shown
light: DIQMTQSPSSLSASVGDRVTITCRASQDVSTAVAWSQQKPGKAPKLLIYPASSLYSGVPSRFSGSRSGTDFTLTISSLQPEDFATYYCQQPTLTPPTFGQGTKVEIKRTVAAPSVFIFPPSDEQLKSGTASVVCLLNNFYPREAKVQWKVDNALQSGNSQESVTEQDSKDSTYSLSSTLTLSKADYEKHKVYACEVTHQGLSSPVTKSFNRGEC
Take B4: the “Functional Agonism EC50 (nM)” value in assay [1] was found to be 0.5 nM.

B5: BDG30.085 (antibody, human IgG1, kappa)
heavy: not shown
light: DIQMTQSPSSLSASVGDRVTITCRASQDISTAVAWSQQKPGKAPKLLIYSASSLYSGVPSRFSGSRSGTDFTLTISSLQPEDFATYYCQQPSLTPPTFGQGTKVEIKRTVAAPSVFIFPPSDEQLKSGTASVVCLLNNFYPREAKVQWKVDNALQSGNSQESVTEQDSKDSTYSLSSTLTLSKADYEKHKVYACEVTHQGLSSPVTKSFNRGEC
notes: Human IgG1; also called IgG of CID_261
Consider B5, for which the “Functional Agonism EC50 (nM)” value in assay [1] is 24.7 nM. In addition, the half-maximal effective concentration (EC50) in assay [2] worked out at 4.3 nM.

B6: BDG30.116 (antibody, human IgG1, kappa, L234A L235A)
heavy: not shown
light: DIQMTQSPSSLSASVGDRVTITCRASQDISTAVAWSQQKPGKAPKLLIYPASSLYSGVPSRFSGSRSGTDFTLTISSLQPEDFATYYCQQHPYTPPTFGQGTKVEIKRTVAAPSVFIFPPSDEQLKSGTASVVCLLNNFYPREAKVQWKVDNALQSGNSQESVTEQDSKDSTYSLSSTLTLSKADYEKHKVYACEVTHQGLSSPVTKSFNRGEC
notes: Human IgG1(L234A/L235A); also called IgG of CID_262
As to B6, the “Functional Agonism EC50 (nM)” value in assay [1] came to 3 nM. The EC50 in assay [2] amounted to 5.1 nM.

B7: BDG30.088 (antibody, human IgG1, kappa)
heavy: not shown
light: DIQMTQSPSSLSASVGDRVTITCRASQDVSTAVAWYQQKPGKAPKLLIYPASSLYSGVPSRFSGSRSGTDFTLTISSLQPEDFATYYCQQPGYTPPTFGQGTKVEIKRTVAAPSVFIFPPSDEQLKSGTASVVCLLNNFYPREAKVQWKVDNALQSGNSQESVTEQDSKDSTYSLSSTLTLSKADYEKHKVYACEVTHQGLSSPVTKSFNRGEC
notes: Human IgG1; also called IgG of CID_266
B7: the “Functional Agonism EC50 (nM)” value in assay [1] amounted to 49 nM. For the same molecule, the EC50 in assay [2] worked out at 13.1 nM.

B8: BDG30.087 (antibody, human IgG1, kappa)
heavy: not shown
light: DIQMTQSPSSLSASVGDRVTITCRASQDVSTAVAWSQQKPGKAPKLLIYPASSLYSGVPSRFSGSRSGTDFTLTISSLQPEDFATYYCQQPTLTPPTFGQGTKVEIKRTVAAPSVFIFPPSDEQLKSGTASVVCLLNNFYPREAKVQWKVDNALQSGNSQESVTEQDSKDSTYSLSSTLTLSKADYEKHKVYACEVTHQGLSSPVTKSFNRGEC
notes: Human IgG1; also called IgG of CID_264
With B8, in assay [1], the “Functional Agonism EC50 (nM)” value was 3.9 nM. Also, the EC50 in assay [2] was determined as 18.4 nM.

B9: BDG30.089 (antibody, human IgG1, kappa, V domains shown)
VH: EVQLVESGGGLVQPGGSLRLSCAASGFNIRDYYIHWVRQAPGKGLEWVADIDPTNGDTRYADSVKGRFTISADTSKNTAYLQMNSLRAEDTAVYYCSREGQDGYNAWDLWGQGTLVTVSS
VL: DIQMTQSPSSLSASVGDRVTITCRASQDVSTAVAWYQQKPGKAPKLLIYPASSLYSGVPSRFSGSRSGTDFTLTISSLQPEDFATYYCQQHPYTPPTFGQGTKVEIKR
notes: Human IgG1; also called IgG of CID_267
With B9, in assay [2], the EC50 came out at 50.4 nM.

B10: BDG30.032 (antibody, human IgG1, kappa)
heavy: not shown
light: DIQMTQSPILLSASVGDRVTITCRASQDVSTAVAWSQQRTNGSPRLLIYSASSLYSGVPSRFSGSRSGTDFTLTISSLQPEDIADYYCQQPTYTPPTFGAGTKVEIKRTVAAPSVFIFPPSDEQLKSGTASVVCLLNNFYPREAKVQWKVDNALQSGNSQESVTEQDSKDSTYSLSSTLTLSKADYEKHKVYACEVTHQGLSSPVTKSFNRGEC
notes: Human IgG1; produced in HEK cells by Genscript; also called IgG of CID_436
In the case of B10, the “Functional Agonism EC50 (nM)” value in assay [1] is 0.85 nM. Also, the EC50 in assay [2] turned out to be 21.9 nM.

B11: BDG30.115 (antibody, human IgG1, kappa, L234A L235A)
heavy: not shown
light: DIQMTQSPILLSASVGDRVTITCRASQDVSTAVAWSQQRTNGSPRLLIYSASSLYSGVPSRFSGSRSGTDFTLTISSLQPEDIADYYCQQPTYTPPTFGAGTKVEIKRTVAAPSVFIFPPSDEQLKSGTASVVCLLNNFYPREAKVQWKVDNALQSGNSQESVTEQDSKDSTYSLSSTLTLSKADYEKHKVYACEVTHQGLSSPVTKSFNRGEC
With B11, the “Functional Agonism EC50 (nM)” value in assay [1] stood at 1 nM.

B12: BDG30.081 (antibody, human IgG1, kappa, V domains shown)
VH: EVQLVESGGGLVQPGGSLRLSCAASGFNIRATYIHWVRQSPGKGLEWVADISPDNGDTRYADSVKGRFTISADTSKNTAYLQMNSLRAEDTAIYYCSRDLADGYNAFDLWGQGTLVTVSS
VL: DIQMTQSPILLSASVGDRVTITCRASQDVSTAVAWSQQRTNGSPRLLIYSASSLYSGVPSRFSGSRSGTDFTLTISSLQPEDIADYYCQQHGYTPPTFGAGTKVEIKR
notes: Human IgG1; also called IgG of CID_231
B12: the EC50 in assay [2] worked out at 50.7 nM.

B13: BDG30.084 (antibody, human IgG1, kappa, V domains shown)
VH: EVQLVESGGGLVQPGGSLRLSCAASGFNIRAFYIHWVRQSPGKGLEWVADIDPTNGDTRYADSVKGRFTISADTSKNTAYLQMNSLRAEDTAIYYCTREGEDGYNAFDQWGQGTLVTVSS
VL: DIQMTQSPILLSASVGDRVTITCRASQDVSTAVAWYQQRTNGSPRLLIYPASSLYSGVPSRFSGSRSGTDFTLTISSLQPEDIADYYCQQPRYTPPTFGAGTKVEIKR
notes: Human IgG1; also called IgG of CID_234
Take B13: the EC50 in assay [2] is 58.9 nM.

B14: BDG30.113 (antibody, human IgG1, kappa, L234A L235A, V domains shown)
VH: EVQLVQSGPELKKPGASVKVSCKGSGYTFTDLGMGWVRQAPGQGLEWMGWINTQTGEPFYADDFKGRFVFSLDTSVSTAYLQISSLKAEDTAVYYCTRDHPLGLDYWGQGTLVTVSS
VL: DIQVTQSPSSLSASVGDRVTITCITSQSVDVAGVSYLNWYQQKPGKVPKFLIHKASNLRSGVPSRFSGSGSGTDFTLTISSLQPEDVATYYCQQAREDPYTFGQGTKVEIKR
notes: Human IgG1(L234A/L235A); also called IgG of CID_327
As for B14, the “Functional Agonism EC50 (nM)” value in assay [1] was found to be 3.8 nM. For the same molecule, in assay [2], the EC50 is 2.5 nM.

B15: BDG30.114 (antibody, human IgG1, kappa, L234A L235A, V domains shown)
VH: EVQLVQSGPELKKPGASVKVSCKGSGYTFTDLGMNWVRQAPGQGLEWMGWINTQTGEPFYADDFKGRFVFSLDTSVSTAYLQISSLKAEDTAVYFCARDHPLGLDYWGQGTLVTVSS
VL: DIQVTQSPSSLSASVGDRVTITCITSQSVDVNGVSYLNWYQQKPGKVPKFLIYKASILRSGVPSRFSGSGSGTDFTLTISSLQPEDVATYYCQQSREDPYTFGQGTKVEIKR
notes: Human IgG1(L234A/L235A); also called IgG of CID_328
In the case of B15, the “Functional Agonism EC50 (nM)” value in assay [1] was 6.4 nM. Also, the half-maximal effective concentration (EC50) in assay [2] was determined as 2.2 nM.
